Measured values from publication PMC3349339 (Journal of Molecular Biology, 2012).
pKd: −log10 of the molar value.

Assays:
[1] = biological target: HLA-DR1 with a His→Asn substitution at position β81 (human)
[2] = test system: wtDR1; assay: Fluorescence polarization dissociation measurements, wtDR1; format: binding, human; settings: FP peptide release, 37 °C, pH 5
[3] = biological target: β81mut (HLA-DR1 with His→Asn substitution at position β81) (Homo sapiens, UniProt P01903+P01911, A100R/D57E/F55L/F60I/F76Y/H110N/I96L/L162R/M171V/P40L/Q125E/R42F/V115G/Y59C); assay: Fluorescence polarization dissociation measurements, β81mut; format: binding; settings: FP peptide release, 37 °C, pH 5
[4] = biological target: HLA-DR1 with a His→Asn substitution at position β81 (human); assay: fluorescence polarisation

| Substance | pKd [1] | Stable binding allowing off-rate measurements, wtDR1 [2] | Stable binding allowing off-rate measurements, β81mut [3] | t1/2 [4] [h] |
| --- | --- | --- | --- | --- |
| HA_(306-319) peptide | 7.30 | – | – | – |
| P2,3 SD: HA306-319-derived peptide substituted at P2 and P3 (GPKYSDQNTLKLAT) | – | could bind in a stable fashion | this was not possible | – |
| P3,10 DG: HA306-319-derived peptide substituted at P3 and P10 (GPKYVDQNTLKLGT) | – | could bind in a stable fashion | this was not possible | – |
| fluorescein-labelled HA_(306-319) peptide | – | – | – | 77.3 |
